Consider 22 molecules from paper PMC3713010, “Sox2 Transcriptionally Regulates Pqbp1, an Intellectual Disability-Microcephaly Causative Gene, in Neural Stem Progenitor Cells”.

Test in all cases: EMSA; 10% glycerol, 20 mM HEPES pH 7.8, 45 mM KCl, 10 mM NaCl, 1 mM EDTA, 1 mM DTT, 0.2 ug/uL BSA, 0.1% NP-40, 50 ng poly-dIdC; 20 ng each GST protein; room temperature 30 min (heterodimers 4 C); 6% PAGE 0.25x TBE
Common to all, as to settings: protein: recombinant; tags: GST (N-terminal, pGEX-6P-1); label: 32P-dCTP fill-in of the 5' (dG)5 overhangs of both strands (Methods; control probes are given with GGG)

Data set [1] has as its target T1, Brn2 DNA-binding domain (BD-Brn2) (Mus musculus (B6), UniProt P31360 336-435).
T1 sequence: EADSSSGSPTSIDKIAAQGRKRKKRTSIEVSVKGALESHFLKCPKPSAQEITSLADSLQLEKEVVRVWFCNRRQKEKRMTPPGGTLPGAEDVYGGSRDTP
A digest of the protocol: (§1)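 GST-tagged transcription factor DNA-binding domains were made in E. coli BL21 and purified on glutathione-sepharose. They were tested against candidate cis-element oligonucleotides, annealed and labelled with 32P-dCTP. Each protein (20 ng) was mixed with 40,000–50,000 cpm probe and 50 ng poly-dIdC in HEPES/KCl glycerol buffer with BSA and detergent for 30 min at room temperature. Samples were resolved on 6% polyacrylamide in 0.25×TBE at 4°C. DNA binding was scored as band radioactivity in the expected shift region, measured on a BAS4000 imager.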

Data set [2] concerns the target T2, Oct6 DNA-binding domain (BD-Oct6) (Mus musculus (B6), UniProt P21952 317-416).
T2 sequence: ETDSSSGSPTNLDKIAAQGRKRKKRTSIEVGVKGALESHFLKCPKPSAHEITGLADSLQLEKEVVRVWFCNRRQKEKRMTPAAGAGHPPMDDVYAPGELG
A digest of the protocol: as §1

For data set [3], the target named is Pax6 DNA-binding domain (BD-Pax6) (Mus musculus (B6), UniProt P63015 190-289). In outline:
as §1

Pax6 DNA-binding domain (BD-Pax6), sequence (P63015 190-289): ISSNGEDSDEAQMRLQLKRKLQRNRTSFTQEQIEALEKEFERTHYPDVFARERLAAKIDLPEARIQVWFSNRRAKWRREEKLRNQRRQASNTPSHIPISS

B1: 82 (dsDNA)
DNA 1: GGGGGACTATTTATTTGTGTTTTCCTATTCACTTTACATCCCCC
DNA 2: GGGGGATGTAAAGTGAATAGGAAAACACAAATAAATAGTCCCCC
Regarding B1, the binding result in data set [1] is listed as “no binding”; in data set [2], “binds”; in data set [3], “no binding”.

B2: 90 (dsDNA)
DNA 1: GGGGGTGCTGTTTTTTGTTACTGTCACTAATTACATTTTAAATTATCCCCC
DNA 2: GGGGGATAATTTAAAATGTAATTAGTGACAGTAACAAAAAACAGCACCCCC
With B2, the binding result in data set [1], in data set [2] and in data set [3] was “binds” each time.

B3: 89 (dsDNA)
DNA 1: GGGGGCTACCACACCCAACCTCTAGTAAAGGTTTACAAAATGAATGACCCCC
DNA 2: GGGGGTCATTCATTTTGTAAACCTTTACTAGAGGTTGGGTGTGGTAGCCCCC
Consider B3, for which the binding result in data set [1] is “no binding”; in data set [2], “no binding”; in data set [3], “binds”.

B4: 84 (dsDNA)
DNA 1: GGGGGTATGAATCACAATGTAAATATCTGTGTTTACCCCC
DNA 2: GGGGGTAAACACAGATATTTACATTGTGATTCATACCCCC
As for B4, the results for the binding result in data set [1], in data set [2] and in data set [3] were “no binding”, “no binding” and “binds”, respectively.

B5: 88 (dsDNA)
DNA 1: GGGGGTGTTTTGTTTTGTTTTTTGTATTGGGAAGTGGGCCCCC
DNA 2: GGGGGCCCACTTCCCAATACAAAAAACAAAACAAAACACCCCC
On to B5, for which the binding result in data set [1], in data set [2] and in data set [3] was “no binding” each time.

B6: 73 (dsDNA)
DNA 1: GGGGGCTTGTCCTCAGCATCTATGGTAACACACAAATCCTGAAGCCCCC
DNA 2: GGGGGCTTCAGGATTTGTGTGTTACCATAGATGCTGAGGACAAGCCCCC
In the case of B6, the binding result in data set [1], in data set [2] and in data set [3] was “no binding” in each case.

B7: 92 (dsDNA)
DNA 1: GGGGGATATAATAATAAATCTTTAAAACAAAAAAAAAAACCCCC
DNA 2: GGGGGTTTTTTTTTTTGTTTTAAAGATTTATTATTATATCCCCC
On to B7, for which the binding result in data set [1], in data set [2] and in data set [3] was “binds” in each case.

B8: 78 (dsDNA)
DNA 1: GGGGGTCTTTTGATTTGTCCGATTTAGGTTTTAAACCCCC
DNA 2: GGGGGTTTAAAACCTAAATCGGACAAATCAAAAGACCCCC
Take B8: the binding result in data set [1] is listed as “no binding”; in data set [2], “binds”; in data set [3] it was “no binding”.

B9: 83 (dsDNA)
DNA 1: GGGGGGTCCAAGTTTTGTGACCCTTTAATACAGTTAGATCCCCCC
DNA 2: GGGGGGATCTAACTGTATTAAAGGGTCACAAAACTTGGACCCCCC
As for B9, the binding result in data set [1] is “no binding”; in data set [2], “binds”; in data set [3], “binds”.

B10: 77 (dsDNA)
DNA 1: GGGGGTATGTCTATTTGTTTTTTATTTTTTGAAGACTCCCCC
DNA 2: GGGGGAGTCTTCAAAAAATAAAAAACAAATAGACATACCCCC
For B10, the binding result in data set [1], in data set [2] and in data set [3] was “no binding” in each case.

B11: 91 (dsDNA)
DNA 1: GGGGGTTTGTTTGTTTGTTTTTAAAAATAAGGTCTCGGGCCCCC
DNA 2: GGGGGCCCGAGACCTTATTTTTAAAAACAAACAAACAAACCCCC
On to B11, for which the binding result in data set [1] is reported as “no binding”; in data set [2], “binds”; in data set [3], “binds”.

B12: 81 (dsDNA)
DNA 1: GGGGGAGAGTGCTGGTATTAAAAGGCACAAACTTTCTTTCCCCC
DNA 2: GGGGGAAAGAAAGTTTGTGCCTTTTAATACCAGCACTCTCCCCC
As to B12, the binding result in data set [1], in data set [2] and in data set [3] was “no binding” each time.

B13: 86 (dsDNA)
DNA 1: GGGGGAGTTTAGTTTGTAGAGTACTTACCTAGCAGCACAAAGCCCTGCCCCC
DNA 2: GGGGGCAGGGCTTTGTGCTGCTAGGTAAGTACTCTACAAACTAAACTCCCCC
In the case of B13, the binding result in data set [1], in data set [2] and in data set [3] was “no binding” in each case.

B14: 79 (dsDNA)
DNA 1: GGGGGTGATAGTAACAAAAACCATTTTGTTTTTGGCTCCCCC
DNA 2: GGGGGAGCCAAAAACAAAATGGTTTTTGTTACTATCACCCCC
With B14, the binding result in data set [1], in data set [2] and in data set [3] was “no binding” throughout.

B15: 75 (dsDNA)
DNA 1: GGGGGGCTCTGGGTATAATTAACAATAAAATGCACCCCC
DNA 2: GGGGGTGCATTTTATTGTTAATTATACCCAGAGCCCCCC
As to B15, the binding result in data set [1], in data set [2] and in data set [3] was “binds” each time.

B16: 85 (dsDNA)
DNA 1: GGGGGACATATGCAATTGTTTCCTGTATTATAGTAGAGATCCCCC
DNA 2: GGGGGATCTCTACTATAATACAGGAAACAATTGCATATGTCCCCC
For B16, the binding result is “no binding” in data set [1], “no binding” in data set [2] and “binds” in data set [3].

B17: 76 (dsDNA)
DNA 1: GGGGGCAGGTATGATTGTCCATATTGCTAATAAACCCCCC
DNA 2: GGGGGGTTTATTAGCAATATGGACAATCATACCTGCCCCC
For B17, the binding result in data set [1], in data set [2] and in data set [3] was “binds” throughout.

B18: 93 (dsDNA)
DNA 1: GGGGGATAGAGGCACAAAAATTTCCAGAGACTGGCCCCC
DNA 2: GGGGGCCAGTCTCTGGAAATTTTTGTGCCTCTATCCCCC
B18: the binding result in data set [1], in data set [2] and in data set [3] was “no binding” each time.

B19: 72 (dsDNA)
DNA 1: GGGGGGTTTGTTTTTTAAGGAACTGTAATGAACAAATGTCAGGACCCCC
DNA 2: GGGGGTCCTGACATTTGTTCATTACAGTTCCTTAAAAAACAAACCCCCC
As for B19, the binding result in data set [1], in data set [2] and in data set [3] was “binds” in each case.

B20: 74 (dsDNA)
DNA 1: GGGGGGACTTTCTTGGCGGATTTGGTAACGACAAAGTTAGGATCCCCC
DNA 2: GGGGGATCCTAACTTTGTCGTTACCAAATCCGCCAAGAAAGTCCCCCC
In the case of B20, the binding result in data set [1], in data set [2] and in data set [3] was “no binding” throughout.

B21: 87 (dsDNA)
DNA 1: GGGGGTTATGACTGTTTAATAATATATATTGTGTTCTGGCCCCCC
DNA 2: GGGGGGCCAGAACACAATATATATTATTAAACAGTCATAACCCCC
For the molecule B21, the binding result in data set [1], in data set [2] and in data set [3] was “binds” throughout.

B22: 80 (dsDNA)
DNA 1: GGGGGCATCCCAAATTGTTTTCTCACTTTTGTACCACAGATAGATCCCCC
DNA 2: GGGGGATCTATCTGTGGTACAAAAGTGAGAAAACAATTTGGGATGCCCCC
Consider B22, for which the binding result was “no binding” in data set [1], “binds” in data set [2] and “no binding” in data set [3].
